Measured values: patent publication US20260055188A1 (SHENGHE CHINA BIOPHARMACEUTICAL, published 2026)
Like-named read-outs stand apart in the source and are kept apart here.

T1: Human-B7H3 His (manufacturer: Acro, CAT: TB73-H52E2) (human, UniProt Q5ZPR3-2 29-245)
T1 construct: also called human B7H3 protein; B7H3 protein; not shown: His tag
T1 sequence (looked up): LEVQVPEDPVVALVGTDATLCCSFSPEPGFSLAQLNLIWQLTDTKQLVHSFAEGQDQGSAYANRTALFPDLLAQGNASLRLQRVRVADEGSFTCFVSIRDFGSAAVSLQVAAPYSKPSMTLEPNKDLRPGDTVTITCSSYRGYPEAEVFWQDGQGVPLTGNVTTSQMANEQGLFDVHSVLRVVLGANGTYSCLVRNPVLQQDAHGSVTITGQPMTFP

T2: Human-TNFR2-His (manufacturer: SINO, CAT: 10417-H08H) (human, UniProt P20333 23-257)
T2 construct: Bought protein; also called human TNFR2 protein; TNFR2 protein; not shown: His tag
T2 sequence (looked up): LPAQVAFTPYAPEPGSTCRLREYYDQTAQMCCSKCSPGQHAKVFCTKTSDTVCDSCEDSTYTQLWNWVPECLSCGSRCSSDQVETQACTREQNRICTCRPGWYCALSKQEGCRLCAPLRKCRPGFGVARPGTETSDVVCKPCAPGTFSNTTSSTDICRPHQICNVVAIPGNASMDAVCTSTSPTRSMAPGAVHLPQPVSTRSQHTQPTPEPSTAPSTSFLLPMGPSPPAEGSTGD

B1: TB-H (bispecific antibody, human IgG1, kappa)
light: EVQLVESGGGLVQPGGSLRLSCAASGSRLDYYAVAWFRQAPGKEREEVSCITYSGGSTNYAESVKGRFTISRDNSKNTLYLQMNSLRAEDTAVYYCTTEPYGSSCPLSGYDTWGQGTLVTVSSGGGGSGGGGSGGGGSDIVMTQSPATLSVTPGDRVSLSCRASQSISDYLHWYQQKSHESPRLLIKYASQSISGIPSRFSGSGSGSDFTLSINSVEPEDVGVYYCQNGHSFPLTFGAGTKLELKRTVAAPSVFIFPPSDEQLKSGTASVVCLLNNFYPREAKVQWKVDNALQSGNSQESVTEQDSKDSTYSLSSTLTLSKADYEKHKVYACEVTHQGLSSPVTKSFNRGEC
heavy: not shown
notes: also called antibody TB-H
B2: Positive Control (antibody, V domains shown)
VH: QVQLQQSGAELVKPGASVKLSCKASGYTFTNYDINWVRQRPEQGLEWIGWIFPGDGSTQYNEKFKGKATLTTDTSSSTAYMQLSRLTSEDSAVYFCARQTTATWFAYWGQGTLVTVSA
VL: DIVMTQSPATLSVTPGDRVSLSCRASQSISDYLHWYQQKSHESPRLLIKYASQSISGIPSRFSGSGSGSDFTLSINSVEPEDVGVYYCQNGHSFPLTFGAGTKLELK
B3: TB-F (bispecific antibody, human IgG1, kappa)
light: EVQLVQSGAEVKKPGATVKISCKVSGYSITDYLLHWVQQAPGKCLEWMGWIDPEDAKTKYGQKFQSRVTITADTSTDTAYMELSSLRSEDTAVYYCAANSGTGTMDAWGQGTLVTVSSGGGGSGGGGSGGGGSDIVMTQSPATLSVSPGERATLSCKASQNVGSNVDWYQQKPGQSPRVLIYKASIRYTGIPARFSGSGSGTEFTLTISILQSEDFAVYFCMQSKSYPITFGCGTKLEIKGGGGSGGGGSGGGGSDIVMTQSPATLSVTPGDRVSLSCRASQSISDYLHWYQQKSHESPRLLIKYASQSISGIPSRFSGSGSGSDFTLSINSVEPEDVGVYYCQNGHSFPLTFGAGTKLELKRTVAAPSVFIFPPSDEQLKSGTASVVCLLNNFYPREAKVQWKVDNALQSGNSQESVTEQDSKDSTYSLSSTLTLSKADYEKHKVYACEVTHQGLSSPVTKSFNRGEC
heavy: not shown
notes: also called antibody TB-F
B4: TB-C2 (bispecific antibody, human IgG4 S228P, kappa)
light: DIVMTQSPATLSVTPGDRVSLSCRASQSISDYLHWYQQKSHESPRLLIKYASQSISGIPSRFSGSGSGSDFTLSINSVEPEDVGVYYCQNGHSFPLTFGAGTKLELKRTVAAPSVFIFPPSDEQLKSGTASVVCLLNNFYPREAKVQWKVDNALQSGNSQESVTEQDSKDSTYSLSSTLTLSKADYEKHKVYACEVTHQGLSSPVTKSFNRGEC
heavy: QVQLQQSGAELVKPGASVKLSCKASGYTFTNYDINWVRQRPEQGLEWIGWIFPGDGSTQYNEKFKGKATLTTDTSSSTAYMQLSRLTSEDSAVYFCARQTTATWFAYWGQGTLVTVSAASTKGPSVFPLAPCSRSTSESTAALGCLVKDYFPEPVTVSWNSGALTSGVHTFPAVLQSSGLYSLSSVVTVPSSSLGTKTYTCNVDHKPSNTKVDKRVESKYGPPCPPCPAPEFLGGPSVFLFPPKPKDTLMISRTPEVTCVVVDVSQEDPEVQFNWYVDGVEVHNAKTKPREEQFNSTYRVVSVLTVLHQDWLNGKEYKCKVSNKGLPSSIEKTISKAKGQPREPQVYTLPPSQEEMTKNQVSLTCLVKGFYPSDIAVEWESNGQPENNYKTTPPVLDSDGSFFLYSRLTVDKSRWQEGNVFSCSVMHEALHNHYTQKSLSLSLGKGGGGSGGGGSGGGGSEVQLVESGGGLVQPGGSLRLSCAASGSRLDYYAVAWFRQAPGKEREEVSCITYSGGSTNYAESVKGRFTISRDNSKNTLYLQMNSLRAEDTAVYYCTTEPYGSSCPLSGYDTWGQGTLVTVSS
notes: also called antibody TB-C2
B5: TB-D2 (bispecific antibody, human IgG4 S228P, kappa)
light: B4 light
heavy: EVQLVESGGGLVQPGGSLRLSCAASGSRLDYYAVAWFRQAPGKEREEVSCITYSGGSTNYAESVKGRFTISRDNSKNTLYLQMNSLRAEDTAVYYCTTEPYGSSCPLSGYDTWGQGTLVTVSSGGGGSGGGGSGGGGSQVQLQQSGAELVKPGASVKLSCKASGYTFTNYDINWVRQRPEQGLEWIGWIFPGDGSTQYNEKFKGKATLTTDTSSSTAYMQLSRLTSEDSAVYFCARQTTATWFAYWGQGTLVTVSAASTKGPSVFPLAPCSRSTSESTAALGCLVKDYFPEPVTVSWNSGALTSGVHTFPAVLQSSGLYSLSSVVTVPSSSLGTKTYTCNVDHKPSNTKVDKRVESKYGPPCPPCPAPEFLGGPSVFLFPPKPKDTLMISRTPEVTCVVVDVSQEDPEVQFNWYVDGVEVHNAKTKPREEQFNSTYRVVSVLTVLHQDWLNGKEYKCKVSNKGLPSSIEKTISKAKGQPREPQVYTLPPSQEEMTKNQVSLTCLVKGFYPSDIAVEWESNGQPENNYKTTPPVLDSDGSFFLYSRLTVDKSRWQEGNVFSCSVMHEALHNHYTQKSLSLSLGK
notes: also called antibody TB-D2
B6: TB-G (bispecific antibody, human IgG1, kappa)
light: DIVMTQSPATLSVTPGDRVSLSCRASQSISDYLHWYQQKSHESPRLLIKYASQSISGIPSRFSGSGSGSDFTLSINSVEPEDVGVYYCQNGHSFPLTFGAGTKLELKRTVAAPSVFIFPPSDEQLKSGTASVVCLLNNFYPREAKVQWKVDNALQSGNSQESVTEQDSKDSTYSLSSTLTLSKADYEKHKVYACEVTHQGLSSPVTKSFNRGECGGGGSGGGGSEVQLVESGGGLVQPGGSLRLSCAASGSRLDYYAVAWFRQAPGKEREEVSCITYSGGSTNYAESVKGRFTISRDNSKNTLYLQMNSLRAEDTAVYYCTTEPYGSSCPLSGYDTWGQGTLVTVSS
heavy: not shown
notes: also called antibody TB-G

Experiments:
[1] = molecular target: T1, Human-B7H3 His (manufacturer: Acro, …); assay: ELISA: Human-B7H3 His coated (0.3 µg/mL), antibody titrated, goat anti-human IgG Fc detection, OD450 (Example 3)
Procedure: (§1) Human-B7H3 His (manufacturer: Acro, CAT: TB73-H52E2, LOT: 2052-21AXF1-YS) was diluted to 0.3 μg/mL with a coating solution (1×PBS, pH7.4), and coated into a 96-well ELISA plate at 100 μL/well overnight at 4° C. The coating solution was poured off. Each well was washed with 1×PBST at 300 μL, washed 4 times with a plate washer, and patted dry on a flat paper. It was blocked with 3% skim milk powder at 300 μL/well, and incubated at 37° C. for 1 h. The blocking solution was poured off, washed 4 times with a plate washer, and patted dry on a flat paper. Negative control and positive control were set up. […] The variable region of the antibody sequence of the positive control consists of SEQ ID NO: 1 and SEQ ID NO: 5, with the constant region of human IgG1 added (SEQ ID NO: 85 and SEQ ID NO: 86). The positive control and antibody were diluted to 10 μg/mL with 3% skim milk powder as the starting concentration, and then diluted by 3-fold gradient (11 gradients in total). A blank well was set up and only the diluent was added. It was incubated at 37° C. for 1 h at 100 μL/well. The liquid in the well was discarded, washed 4 times with a plate washer, and patted dry on a flat paper. Goat anti-human IgG Fc was diluted with 3% skim milk powder at 1:20000, and incubated at 37° C. for 1 h at 100 μL/well. It was washed 6 times with a plate washer, and patted dry on a flat paper. TMB color developing solution was added at 100 μL/well, and wrapped with aluminum foil. Color development was performed at 37° C. in the dark for 8 min. Termination solution 1M HCl was added to terminate the color development reaction at 100 μL/well. Readings were taken at 450 nm on an ELISA reader.

[2] = molecular target: T2, Human-TNFR2-His (manufacturer: SINO, …); assay: bridging ELISA: Human-B7H3 Fc coated (0.5 µg/mL), antibody titrated, then Human-TNFR2-His (0.5 µg/mL), HRP-labeled anti-His detection, OD450 (Example 4); the signal needs both proteins bound at once
Procedure: Human-B7H3 Fc (manufacturer: Acro, CAT: B73-H5253, LOT: 2053b-201XF1-UD) was diluted to 0.5 μg/mL with a coating solution (1×PBS, pH7.4) and coated into a 96-well ELISA plate at 100 μL/well at 4° C. overnight. The coating solution was poured off. Each well was washed with 1×PBST at 300 μL, washed 4 times with a plate washer, and patted dry on a flat paper. It was blocked with 3% skim milk powder at 300 μL/well, and incubated at 37° C. for 1 h. The blocking solution was poured off, washed 4 times with a plate washer, and patted dry on a flat paper. […] Starting at 300 nM, which was used as the initial concentration for 3-fold dilution, a total of 8 gradients were diluted, and a blank well was set up, and only diluent was added. It was incubated at 37° C. for 1 h at 100 μL/well. The liquid in the well was discarded, washed 4 times with a plate washer, and patted dry on a flat paper. Human-TNFR2-His (manufacturer: Sino, CAT: 10417-H08H, LOT: LC12SE2902) was diluted to 0.5 μg/mL, 100 μL was added to each well, and incubated at room temperature for 1 h. The plate was washed 3 times with PBST, and then the HRP-labeled his antibody was diluted with sample diluent at 1:10000, 100 μL was added to each well, and incubated at room temperature for 1 h. It was washed 6 times with a plate washer, and patted dry on a flat paper. TMB color developing solution was added at 100 μL/well, and wrapped with aluminum foil. Color development was performed at 37° C. in the dark for 8 min. Termination solution 1M HCl was added to terminate the color development reaction at 100 μL/well. Readings were taken at 450 nm on an ELISA reader.

[3] = molecular target: T1, Human-B7H3 His (manufacturer: Acro, …); assay: ELISA: Human-B7H3 His coated (0.3 µg/mL), antibody titrated, goat anti-human IgG Fc detection, OD450 (Example 3); remark: listed apart in the source
Procedure: as §1

[4] = molecular target: T2, Human-TNFR2-His (manufacturer: SINO, …); assay: ELISA: Human-TNFR2-His coated (0.3 µg/mL), antibody titrated, goat anti-human IgG Fc detection, OD450 (Example 2)
Procedure: Human-TNFR2-His (manufacturer: SINO, CAT: 10417-H08H, LOT: LC15NO0412) was diluted to 0.3 μg/mL with a coating solution (1×PBS, pH7.4), and coated into a 96-well ELISA plate at 100 μL/well overnight at 4° C. The coating solution was poured off. Each well was washed with 1×PBST at 300 μL, washed 4 times with a plate washer, and patted dry on a flat paper. It was blocked with 3% skim milk powder at 300 μL/well, and incubated at 37° C. for 1 h. The blocking solution was poured off, washed 4 times with a plate washer, and patted dry on a flat paper. Negative control and positive control were set up. […] The positive control and antibody were diluted to 10 μg/mL with 3% skim milk powder as the starting concentration, and then diluted by 3-fold gradient (11 gradients in total). A blank well was set up and only the diluent was added. It was incubated at 37° C. for 1 h at 100 μL/well. The liquid in the well was discarded, washed 4 times with a plate washer, and patted dry on a flat paper. Goat anti-human IgG Fc was diluted with 3% skim milk powder at 1:20000, and incubated at 37° C. for 1 h at 100 μL/well. It was washed 6 times with a plate washer, and patted dry on a flat paper. TMB color developing solution was added at 100 μL/well, and wrapped with aluminum foil. Color development was performed at 37° C. in the dark for 8 min. Termination solution 1M HCl was added to terminate the color development reaction at 100 μL/well. Readings were taken at 450 nm on an ELISA reader.

Row | Binder | EC50 (read off the curve) [1] | binding result [2] | EC50 (read off the curve) [3] [nM] | binding result [4]
1 | B1 | ~0.2 µg/mL | binds | – | –
2 | B2 | ~0.3 nM | – | ~0.2 | –
3 | B3 | ~0.2 µg/mL | binds | – | –
4 | B4 | – | – | ~2 | binds
5 | B5 | – | – | ~1 | binds
6 | B6 | – | binds | – | –
